According to US5221606A, “Reagent and kit for enzyme assay comprising a substrate consonant with given enzyme to be assayed” (King's College London, priority 1987, dated 1993):

Substrate: CCC(=O)Oc1c(OC)cc(C=C2SC(=S)N(CC(=O)O)C2=O)cc1OC
Test: assay of arylesterase in serum
Assay type: biochemical
Conditions: other: borate buffer pH 8, 37.0 °C
Description: The serum samples were diluted by a factor of 10 prior to the assay. The substrate solution and the diluted sera were then preincubated at 37° C. in a water bath. Aliquots (0.75 ml) of the substrate solution were then pipetted into small plastic tubes (2 ml capacity), and 0.05 ml samples of the sera were added to each of the substrate aliquots and shaken vigorously to ensure adequate mixing. A blank was run by substituting water (0.05 ml) for the serum. The reaction was stopped after 10 min by the addition of the stopping buffer (0.25 ml) [prepared by dissolving DABCO (22.4 g) in water (200 ml) and adjusting the pH to 10 by the addition of a little conc. hydrochloric acid. The resulting mixture was then made up to 1000 ml with acetone]. The absorption (A) was then measured at 529 nm and the enzyme activity calculated on the basis of an εmax =47,500. [formula] where t=time of incubation in hours

B1: arylesterase (Homo sapiens) (protein)
chain: MAKLIALTLLGMGLALFRNHQSSYQTRLNALREVQPVELPNCNLVKGIETGSEDLEILPNGLAFISSGLKYPGIKSFNPNSPGKILLMDLNEEDPTVLELGITGSKFDVSSFNPHGISTFTDEDNAMYLLVVNHPDAKSTVELFKFQEEEKSLLHLKTIRHKLLPNLNDIVAVGPEHFYGTNDHYFLDPYLQSWEMYLGLAWSYVVYYSPSEVRVVAEGFDFANGINISPDGKYVYIAELLAHKIHVYEKHANWTLTPLKSLDFNTLVDNISVDPETGDLWVGCHPNGMKIFFYDSENPPASEVLRIQNILTEEPKVTQVYAENGTVLQGSTVASVYKGKLLIGTVFHKALYCEL
notes: The serum samples were diluted by a factor of 10 prior to the assay; from tissue; host or cells: serum
Work on B1 yielded a Km of 25 µM.
